Data on 2 compounds can be found in publication PMC6643271 (Biochemistry, 2018).

By Km is commonly meant the substrate concentration at which the rate is half of its maximum. As a reminder, the kcat is the maximal rate divided by the concentration of active sites. The kcat/Km is the turnover number divided by the Michaelis constant.

Holding throughout (settings): 10 mM ATP, 14 mM MgCl2, 100 mM KCl, pH 8.0, 25 °C
Data set [1] addresses Cj1418 (L-glutamine kinase) (Campylobacter jejuni, UniProt Q0P8J6).
The test system of a further data set is NNC(=O)CC[C@H](N)C(=O)O. The experiment in a line: purified protein.
A further data set deals with NC(=O)CC[C@@H](N)C(=O)O. Description: purified protein.
The subject of a further data set is N[C@@H](CCC(=O)NO)C(=O)O. The experiment in a line: purified protein.

Cj1418 (L-glutamine kinase), sequence (Q0P8J6 whole entry): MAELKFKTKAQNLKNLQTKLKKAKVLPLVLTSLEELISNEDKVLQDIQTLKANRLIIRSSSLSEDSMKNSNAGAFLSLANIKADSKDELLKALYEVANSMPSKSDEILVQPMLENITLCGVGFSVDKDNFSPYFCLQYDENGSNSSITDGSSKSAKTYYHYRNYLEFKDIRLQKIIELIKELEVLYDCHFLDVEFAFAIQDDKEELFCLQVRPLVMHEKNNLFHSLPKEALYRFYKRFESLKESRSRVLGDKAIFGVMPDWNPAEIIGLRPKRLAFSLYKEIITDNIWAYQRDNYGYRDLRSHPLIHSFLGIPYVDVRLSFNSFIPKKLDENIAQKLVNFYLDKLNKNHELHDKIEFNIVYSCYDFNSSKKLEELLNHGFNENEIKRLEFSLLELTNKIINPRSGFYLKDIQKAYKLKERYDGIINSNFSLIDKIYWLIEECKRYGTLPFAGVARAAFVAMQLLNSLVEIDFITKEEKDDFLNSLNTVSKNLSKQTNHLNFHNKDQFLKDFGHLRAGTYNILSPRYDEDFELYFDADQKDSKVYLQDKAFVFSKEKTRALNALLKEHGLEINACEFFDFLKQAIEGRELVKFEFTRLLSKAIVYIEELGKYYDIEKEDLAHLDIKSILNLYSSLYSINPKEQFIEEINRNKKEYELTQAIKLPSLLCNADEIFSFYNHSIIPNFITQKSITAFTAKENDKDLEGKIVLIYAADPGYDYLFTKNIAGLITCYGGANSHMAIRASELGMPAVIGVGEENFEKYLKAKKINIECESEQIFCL

Take `NC(=O)CC[C@H](N)C(=O)O` [compound 1, L-glutamine]: in data set [1], the Km turned out to be 640 ± 60 µM.
In the case of “Cj1418 (L-glutamine kinase) (Campylobacter jejuni subsp. jejuni NCTC 11168 = ATCC 700819)”, in the data set on NNC(=O)CC[C@H](N)C(=O)O, the Km amounted to 17200 ± 3800 µM, the kcat was found to be 0.41 ± 0.05 s⁻¹ and the kcat/Km was 24 ± 6 M⁻¹ s⁻¹. Further, in the data set on NC(=O)CC[C@@H](N)C(=O)O, the Km was found to be 10500 ± 1800 µM, the kcat turned out to be 1.5 ± 0.1 s⁻¹ and the catalytic efficiency (kcat/Km) is 140 ± 30 M⁻¹ s⁻¹. For the same compound, in the data set on N[C@@H](CCC(=O)NO)C(=O)O, the Km was found to be 1500 ± 400 µM, the kcat is 2.1 ± 0.2 s⁻¹ and the specificity constant (kcat/Km) came to 1400 ± 360 M⁻¹ s⁻¹.
